± gives the uncertainty stated by the source.
Assay: amyloid nucleation score (Sup35N fusion, yeast selection) (log enrichment); library NNK1; higher = more nucleation; inactive = no reads after selection
Method in brief: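 For the nucleation score, DiMSum gave the log enrichment of output over input reads, centred on the mode score of non-aggregating sequences. Psi-negative yeast expressing Sup35N fused to peptides of 20 random codons were induced with 100 μM copper sulfate for 24 hours and grown 7 days at 30°C on medium lacking adenine and uracil. Input and output plasmid inserts were Illumina-sequenced, and sequences with under 100 input reads were excluded.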

Substance | amyloid nucleation score
HTLTPAHPTNGVVT | -0.871 ± 1.3
HTVPILRSAVPDSDARAKSQ | 0.493 ± 0.4
HVGSATASRVMSGCGSTVSY | -1.83 ± 1.7
HVMRSSGRHGRRRLT | -0.631 ± 1.1
HVNSFKLGNGSFHFWY | 0.634 ± 0.38
HWLPHDVLSMWW | 1.29 ± 0.67
HWVDLVGESNNSISFAVVFC | 4.9 ± 0.079
HYIPRRN | -0.016 ± 1.7
HYNFKDMNYKPLIVIEMHEW | 5.33 ± 0.055
HYQMLDAISRSSVYVLSKSR | -0.239 ± 0.29
HYRSTGMMESSRG | 0.522 ± 0.6
HYSTEEGRVCGSVKQQKAWL | -0.296 ± 0.52
HYYANSGVCSTSVNLFRLGS | 6.529 ± 0.049
IAAYLVVDILPGSI | -0.036 ± 0.6
IAGFEVARPSNSKTFFPSKF | 2.07 ± 0.14
IALASCVCLSACWTLDVNSM | 0.989 ± 0.31
IAPTFSYMMERSLFTVGYDM | -0.042 ± 0.41
IASMSVFPSHMCFVGTSTVR | -0.417 ± 0.34
IATGMWLYVSLVTPQHSLVN | 0.101 ± 0.49
ICAPVEIL | -0.176 ± 0.76
ICFNFYITYSASDALSRTCY | 8.287 ± 0.047
ICGQLPISMGVLSIFWWFES | 0.331 ± 0.79

Substance | amyloid nucleation score
ICQTFASCEFDGCLLH | 3.47 ± 0.12
ICSNGLLIMNVE | 1.13 ± 0.97
ICSWVHDQWAFYYISLYYVK | -1.2 ± 0.74
ICTVSLLYFVYDKYCHNATL | -0.444 ± 0.56
ICVLKKFLVSIQSVIY | 1.46 ± 0.74
IDEVEGIRRFGLWELRLVCP | -0.225 ± 0.28
IDHSTRVNPGEPLQVLRGGL | 4.29 ± 0.088
IDIWVLLMNHGMKASPGDLE | -0.479 ± 0.42
IDKMELFSRSKHKWYMASAI | -0.267 ± 0.79
IDKSVGLVHKTHYWFQPWYK | 0.445 ± 0.43
IDMCYWISVPAKNVHVIDIP | 1.29 ± 0.6
IDRSLETTTVRGLVVRCYNG | 0.369 ± 0.35
IDSVQFTLQTASHPRSDDDC | -0.143 ± 0.58
IDSYITNKGSRSAKCHPDDS | -0.701 ± 1
IECCFAYGRYLMWVGMYGSK | 0.79 ± 0.59
IECLLDRILDTLYVRLNFIG | 0.616 ± 0.79
IEGMCGDMVMTYYIFLDSCG | 1.07 ± 0.36
IELDYYIINIVWPPAGNYRH | 6.734 ± 0.062
IENGLYMSLYLGNQRI | 1.47 ± 0.29
IERKLCKIGVMK | 0.597 ± 0.65
IFAMV | inactive
IFCGRIKQCSLASHCKLEWG | 0.69 ± 0.41

Substance | amyloid nucleation score
IFCYMNYGS | 0.554 ± 0.51
IFIFYGTRGSFRLRVAY | 2.72 ± 0.24
IFLGPVLFVGDTRFCHVLIN | 7.789 ± 0.049
IFLYDRLNGDPFSSRW | 0.729 ± 0.9
IFRTIERTVSIFNRSSR | 0.222 ± 0.72
IFSNQSATLGLSVSSWIYLE | -0.983 ± 0.4
IFTFQLLFRNSQRSMYSSVL | 0.651 ± 0.63
IFTLGVALFSIVM | 4.24 ± 0.067
IFVALRRD | -1.29 ± 1.3
IFVVGAGLHDKTNGYVYRSR | 0.164 ± 0.24
IFVVGKGDLGCCQI | 0.967 ± 0.35
IFYLRFPVLLVISPRCALYI | 0.623 ± 0.75
IFYYNRCWLTRYRVICLESI | -1.38 ± 0.51
IGCSCGLHT | inactive
IGDDLLGVFLYIETNSTPVF | 0.655 ± 0.74
IGDRNVNLGVQVVVMKE | 7.031 ± 0.048
IGGRGVLKSVSTLTCVLWTW | 0.473 ± 0.92
IGHVNTYCCIADWSWVRGAG | 8.895 ± 0.044
IGMLGLCGRIPMQAEGGSFR | 0.712 ± 0.52
IGSFGNRYRVPMRTASGYNM | 0.623 ± 1
IGTLFTSNSYFWYLVVG | 2.51 ± 0.13
IGTSFVYNYFDHFLK | 5.59 ± 0.062

Substance | amyloid nucleation score
IHGNDPMLTVGSSMYV | 0.323 ± 0.41
IHGSRCVPKSQD | 0.201 ± 0.38
IHIWSSCLSNYKVILGAEVL | 0.407 ± 0.28
IHKAKISWFLCYMLDDT | 0.097 ± 0.33
IHSGQAEMGTLRYHSNKCKD | -0.554 ± 1.7
IHVLADIYCVWGGLKEFWTS | 0.374 ± 0.65
IIASGHDFL | -0.732 ± 0.87
IIIYRNYALMEYDVGRV | 0.75 ± 0.76
IINMGTYRSTMLNILLKEKC | 2.88 ± 0.27
IKHLKNMGFCVRESLYSDRF | -0.042 ± 0.59
IKLFLRNIV | -0.252 ± 0.59
IKLQWS | -0.323 ± 0.53
IKMYACMYWLVEFLVN | -0.046 ± 0.86
IKRTCYPLVRGVPNQIRNLK | -0.091 ± 0.68
ILCIESLSGFPWLICIENSL | 0.135 ± 0.39
ILCSLYYICT | 2.74 ± 0.071
ILCTIFHRTCFLRFRILEHF | inactive
ILDVKAPR | 0.446 ± 0.64
ILFDSHANFVGMSCQYRSGR | 5.72 ± 0.1
ILGKFFIDLSDI | -1.16 ± 0.43
ILGVFNTIVVFKR | 4.9 ± 0.066

Reference: the supplement of paper PMC12042874
